Assay results taken from paper PMC2906495, “A kinesin motor in a force-producing conformation” (BMC Structural Biology, 2010).

Legend:
[1] = molecular target: the molecule itself; assay: crystal structure; NcdT436S at 4.5 mg/ml incubated with 4 mM MgCl2 and 4 mM ATP, hanging drops at room temperature, 11.5% PEG 8K, 25 mM sodium-phosphate pH 6.26, 0.5 M NaCl; molecular replacement with PDB 1N6M; two chains (A, B) joined by the coiled-coil stalk
[2] = molecular target: microtubules (polymerized tubulin)

B1: NcdT436S, nonfusion protein for crystallization (MGSM-H293-K700) (domain or fragment, Drosophila)
chain: MGSMHAALSTEVVHLRQRTEELLRCNEQQAAELETCKEQLFQSNMERKELHNTVMDLRGNIRVFCRIRPPLESEENRMCCTWTYHDESTVELQSIDAQAKSKMGQQIFSFDQVFHPLSSQSDIFEMVSPLIQSALDGYNICIFAYGQSGSGKTYTMDGVPESVGVIPRTVDLLFDSIRGYRNLGWEYEIKATFLEIYNEVLYDLLSNEQKDMEIRMAKNNKNDIYVSNITEETVLDPNHLRHLMHTAKMNRATASTAGNERSSRSHAVTKLELIGRHAEKQEISVGSINLVDLAGSESPKTSTRMTETKNINRSLSELTNVILALLQKQDHIPYRNSKLTHLLMPSLGGNSKTLMFINVSPFQDCFQESVKSLRFAASVNSCKMTKAKRNRYLNNSVANSSTQSNNSGSFDK
notes: N-terminal leader of the construct MGSM-H293-K700; kinesin-14 Ncd of Drosophila, residues H293-K700 (part of the coiled-coil stalk, neck, motor domain and C-terminus), with T436S in the P-loop; The printed mass of 93,692 Da fits two chains (dimer); In the crystal, chain A is visible from M292 to K671 and chain B from G290 to K674; also called kinesin-14 Ncd T436S; source: E. coli BL21(DE3)pLysS …
**Q.** Does B1 bind [1]?
**A.** binds

B2: wild-type GST/Ncd (GST/MC1) (domain or fragment)
chain: KTKYEKQTEDMGELESMPQQLEETQNKLIETESSLKNTQSDNECLQRQVKQHTAKIETITSTLGRTKEELSELQAIHEKVKTEHAALSTEVVHLRQRTEELLRCNEQQAAELETCKEQLFQSNMERKELHNTVMDLRGNIRVFCRIRPPLESEENRMCCTWTYHDESTVELQSIDAQAKSKMGQQIFSFDQVFHPLSSQSDIFEMVSPLIQSALDGYNICIFAYGQTGSGKTYTMDGVPESVGVIPRTVDLLFDSIRGYRNLGWEYEIKATFLEIYNEVLYDLLSNEQKDMEIRMAKNNKNDIYVSNITEETVLDPNHLRHLMHTAKMNRATASTAGNERSSRSHAVTKLELIGRHAEKQEISVGSINLVDLAGSESPKTSTRMTETKNINRSLSELTNVILALLQKQDHIPYRNSKLTHLLMPSLGGNSKTLMFINVSPFQDCFQESVKSLRFAASVNSCKMTKAKRNRYLNNSVANSSTQSNNSGSFDK
**Q.** Which K (m,MTs) of the microtubule-stimulated steady-state ATPase (0.5 μM motor, 1 mM MgATP, 0-2.5 μM microtubules) [2] does the source give for B2 here?
**A.** 1.6 µM

B3: GST/NcdT436S (GST-…-K210-K700) (domain or fragment)
chain: SDLVPRGSPVKTKYEKQTEDMGELESMPQQLEETQNKLIETESSLKNTQSDNECLQRQVKQHTAKIETITSTLGRTKEELSELQAIHEKVKTEHAALSTEVVHLRQRTEELLRCNEQQAAELETCKEQLFQSNMERKELHNTVMDLRGNIRVFCRIRPPLESEENRMCCTWTYHDESTVELQSIDAQAKSKMGQQIFSFDQVFHPLSSQSDIFEMVSPLIQSALDGYNICIFAYGQSGSGKTYTMDGVPESVGVIPRTVDLLFDSIRGYRNLGWEYEIKATFLEIYNEVLYDLLSNEQKDMEIRMAKNNKNDIYVSNITEETVLDPNHLRHLMHTAKMNRATASTAGNERSSRSHAVTKLELIGRHAEKQEISVGSINLVDLAGSESPKTSTRMTETKNINRSLSELTNVILALLQKQDHIPYRNSKLTHLLMPSLGGNSKTLMFINVSPFQDCFQESVKSLRFAASVNSCKMTKAKRNRYLNNSVANSSTQSNNSGSFDK
**Q.** For B3, which K (m,MTs) of the microtubule-stimulated steady-state ATPase (0.5 μM motor, 1 mM MgATP, 0-2.5 μM microtubules) [2] is on record?
**A.** 1.3 µM
